Results published in US20250027945A1 (University of California, published 2025).

Tests used:
[1] = molecular target: T1, human RYK on the surface of human tumor cell lines (human, UniProt P34925 46-607); test: flow cytometry, K562 cells (CML), 5 ug/ml 2-D11-Alexa647
T1 construct: whole, on cells; Endogenous expression
Experimental: (§1) Table 1 provides the flow cytometry data on various cancer cell lines stained with fluorochrome-conjugated 2-D11, as depicted in FIG. 8. The name of each cell line is listed in the first column and the tissue of origin is listed in the second column. Binding of the 2-D11 mAb to human RYK was assessed by flow cytometric staining and analysis by staining on ice for 20 minutes with 5 μg/ml of 2-D11 anti-human RYK-Alexa647 conjugated mAb or equal amounts of isotype matched control mAb, washed, and analyzed. The median fluorescence intensity (MFI) of 2-D11 stained cells is listed in the middle column and the MFI of isotype control stained cells are listed in the in the adjacent column. Cell lines were scored as “++”, “+”, or neg (unmarked with “+”) lines based on the ratio of median fluorescence intensity (MFI) of stained cells relative to the MFI of isotype control stained cells (MFIR).
(§2) The name of each cell line is listed in the first column and the tissue of origin is listed in the second column. Binding of the 2-D11 mAb to human RYK was assessed by flow cytometric staining and analysis by staining on ice for 20 minutes with 5 μg/ml of 2-D11 anti-human RYK-Alexa647 conjugated mAb or equal amounts of isotype matched control mAb, washed and analyzed. […]

[2] = molecular target: T1, human RYK on the surface of human tumor …; test: flow cytometry, A549 cells (lung), 5 ug/ml 2-D11-Alexa647
Experimental: as §1, §2

[3] = molecular target: T1, human RYK on the surface of human tumor …; test: flow cytometry, HT144 cells (skin), 5 ug/ml 2-D11-Alexa647
Experimental: as §1, §2

[4] = molecular target: T1, human RYK on the surface of human tumor …; test: flow cytometry, HS683 cells (brain), 5 ug/ml 2-D11-Alexa647
Experimental: as §1, §2

[5] = molecular target: T1, human RYK on the surface of human tumor …; test: flow cytometry, BT549 cells (breast), 5 ug/ml 2-D11-Alexa647
Experimental: as §1, §2

[6] = molecular target: T1, human RYK on the surface of human tumor …; test: flow cytometry, SKBR3 cells (breast), 5 ug/ml 2-D11-Alexa647
Experimental: as §1, §2

[7] = molecular target: T1, human RYK on the surface of human tumor …; test: flow cytometry, T47-D cells (breast), 5 ug/ml 2-D11-Alexa647
Experimental: as §1, §2

[8] = molecular target: T1, human RYK on the surface of human tumor …; test: flow cytometry, REH cells (ALL), 5 ug/ml 2-D11-Alexa647; line unmarked (no staining)
Experimental: as §1, §2

[9] = molecular target: T1, human RYK on the surface of human tumor …; test: flow cytometry, EW36 cells (NHL), 5 ug/ml 2-D11-Alexa647; line unmarked (no staining)
Experimental: as §1, §2

[10] = molecular target: T1, human RYK on the surface of human tumor …; test: flow cytometry, SK-MEL-2 cells (skin), 5 ug/ml 2-D11-Alexa647; line unmarked (no staining)
Experimental: as §1, §2

[11] = molecular target: T1, human RYK on the surface of human tumor …; test: flow cytometry, SK-MES-1 cells (lung), 5 ug/ml 2-D11-Alexa647; line unmarked (no staining)
Experimental: as §1, §2

[12] = molecular target: T1, human RYK on the surface of human tumor …; test: flow cytometry, DU-145 cells (prostate), 5 ug/ml 2-D11-Alexa647; line unmarked (no staining)
Experimental: as §1, §2

[13] = molecular target: T1, human RYK on the surface of human tumor …; test: flow cytometry, JURKAT cells (T-cell ALL), 5 ug/ml 2-D11-Alexa647; line unmarked (no staining)
Experimental: as §1, §2

T1 sequence (P34925 46-607 limits assumed, form in doubt): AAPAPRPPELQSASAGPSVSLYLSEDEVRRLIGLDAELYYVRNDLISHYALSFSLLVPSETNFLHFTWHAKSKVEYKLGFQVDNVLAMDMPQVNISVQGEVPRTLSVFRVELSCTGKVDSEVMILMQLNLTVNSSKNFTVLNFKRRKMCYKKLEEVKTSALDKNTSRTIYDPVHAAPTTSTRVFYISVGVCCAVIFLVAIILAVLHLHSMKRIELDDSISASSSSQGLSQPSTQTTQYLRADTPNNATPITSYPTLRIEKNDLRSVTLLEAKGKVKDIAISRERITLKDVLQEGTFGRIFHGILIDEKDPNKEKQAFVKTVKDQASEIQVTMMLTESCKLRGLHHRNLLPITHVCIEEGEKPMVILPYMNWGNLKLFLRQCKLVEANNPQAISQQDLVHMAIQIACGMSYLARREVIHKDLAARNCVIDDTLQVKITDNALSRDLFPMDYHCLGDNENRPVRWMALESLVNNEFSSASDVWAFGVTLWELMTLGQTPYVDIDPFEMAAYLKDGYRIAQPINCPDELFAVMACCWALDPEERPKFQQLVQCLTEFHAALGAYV

MFIR (MFI ratio to isotype control) [1]: 1.5
MFIR (MFI ratio to isotype control) [2]: 1.5
MFIR (MFI ratio to isotype control) [3]: 1.6
MFIR (MFI ratio to isotype control) [4]: 2.5
MFIR (MFI ratio to isotype control) [5]: 3.9
MFIR (MFI ratio to isotype control) [6]: 1.6
MFIR (MFI ratio to isotype control) [7]: 2
MFIR (MFI ratio to isotype control) [8]: 1
MFIR (MFI ratio to isotype control) [9]: 1.1
MFIR (MFI ratio to isotype control) [10]: 1.1
MFIR (MFI ratio to isotype control) [11]: 1.1
MFIR (MFI ratio to isotype control) [12]: 1.3
MFIR (MFI ratio to isotype control) [13]: 1.1
B1: 2-D11 anti-human RYK mAb (antibody, V domains shown)
VH: QVQLKESGPGLVAPSQSLSITCSVSGFSLNDYGVNWVRQPPGKDLEWLGMIWGDGVTEYNSTLKSRLSISKDNSKSQVFLKMNNLQTEDTARYYCVRQGSGVWFAHWGQGTLVSVSS
VL: DVLVTQTPLSLPVSLGDQASISCRSSQTIVHSNGNTYLEWYLQKPGQSPKLLIYKVSNRFSGVPDRFSGSGSGTDFTLKISRVEAEDLGIYYCFQGSHVPYTFGGGTKLEIK
notes: Mouse hybridoma mAb, kappa light chain, detected with anti-mouse IgG; also called mAb 2-D11; 2-D11 anti-human RYK-Alexa647 conjugated mAb
